Source: paper PMC9482650, “Quantitative fragmentomics allow affinity mapping of interactomes” (Nature Communications, 2022)

Experiments:
Experiment in all cases: holdup assay
Set-up in all cases: key: below the threshold = too weak to quantify, mostly under pKd 3.1 to 4
Conditions in all cases: plain residues with an end cap or a label only (N-terminal biotin on a linker: ado-ado)
[1] = biological target: DLG4_1, P78352
[2] = biological target: T1, LNX2_2, Q8N448
T1 sequence (Q8N448 334-432, limits assumed, looked up): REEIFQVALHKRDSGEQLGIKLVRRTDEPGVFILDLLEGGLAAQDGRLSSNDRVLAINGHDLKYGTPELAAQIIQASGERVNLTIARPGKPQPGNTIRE

[3] = biological target: FRMPD3, Q5JV73
[4] = biological target: DLG2_3, Q15700
[5] = biological target: T2, MPP2, Q14168
T2 sequence (Q14168 180-250, limits assumed, looked up): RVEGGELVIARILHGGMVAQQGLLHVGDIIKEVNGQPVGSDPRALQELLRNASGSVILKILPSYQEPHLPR

[6] = biological target: PICK1, Q9NRD5
[7] = biological target: T3, SYNJ2BP, P57105
T3 sequence (P57105 8-110, limits assumed, looked up): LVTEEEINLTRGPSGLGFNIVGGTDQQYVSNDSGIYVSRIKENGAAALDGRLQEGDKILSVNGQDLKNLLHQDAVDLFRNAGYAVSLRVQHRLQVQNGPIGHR

[8] = biological target: HTRA1, Q92743
[9] = biological target: T4, GRIP1_3, Q9Y3R0
T4 sequence (Q9Y3R0 247-346, limits assumed, looked up): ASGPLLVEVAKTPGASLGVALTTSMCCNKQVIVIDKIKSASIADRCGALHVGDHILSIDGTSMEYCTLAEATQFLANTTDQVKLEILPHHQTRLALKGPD

[10] = biological target: MAGI1_1, Q96QZ7
[11] = biological target: DLG4_2, P78352
[12] = biological target: GRIP2_4, Q9C0E4
[13] = biological target: GRIP2_5, Q9C0E4
[14] = biological target: T5, NHERF3_1, Q5T2W1
T5 sequence (Q5T2W1 4-100, limits assumed, looked up): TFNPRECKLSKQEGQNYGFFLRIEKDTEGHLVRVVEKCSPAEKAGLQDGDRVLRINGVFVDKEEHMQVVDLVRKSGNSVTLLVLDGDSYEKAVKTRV

[15] = biological target: T6, APBA2_1, Q99767
T6 sequence (Q99767 563-664, limits assumed, looked up): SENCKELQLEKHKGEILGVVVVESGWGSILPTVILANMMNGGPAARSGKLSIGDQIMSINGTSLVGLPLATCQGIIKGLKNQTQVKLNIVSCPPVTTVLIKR

[16] = biological target: GRID2IP_2, A4D2P6
[17] = biological target: T7, APBA1_2, Q02410
T7 sequence (Q02410 742-832, limits assumed, looked up): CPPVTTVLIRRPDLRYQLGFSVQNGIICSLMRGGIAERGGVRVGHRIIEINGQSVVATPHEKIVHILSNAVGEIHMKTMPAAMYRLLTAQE

[18] = biological target: PDLIM1, O00151
[19] = biological target: T8, APBA1_1, Q02410
T8 sequence (Q02410 651-752, limits assumed, looked up): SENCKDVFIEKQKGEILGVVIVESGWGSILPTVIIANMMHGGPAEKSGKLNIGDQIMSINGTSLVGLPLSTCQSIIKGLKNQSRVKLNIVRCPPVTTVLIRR

[20] = biological target: Inadl_8, Q8NI35
[21] = biological target: T9, DLG3_2, Q92796
T9 sequence (Q92796 221-321, limits assumed, looked up): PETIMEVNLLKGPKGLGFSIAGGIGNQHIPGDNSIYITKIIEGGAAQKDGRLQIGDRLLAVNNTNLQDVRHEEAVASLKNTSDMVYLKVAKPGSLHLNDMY

[22] = biological target: T10, NHERF3_3, Q5T2W1
T10 sequence (Q5T2W1 238-333, limits assumed, looked up): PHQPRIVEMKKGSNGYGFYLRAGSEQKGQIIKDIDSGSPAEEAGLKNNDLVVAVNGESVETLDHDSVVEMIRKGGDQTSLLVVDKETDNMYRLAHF

[23] = biological target: T11, RHPN1, Q8TCX5
T11 sequence (Q8TCX5 508-602, limits assumed, looked up): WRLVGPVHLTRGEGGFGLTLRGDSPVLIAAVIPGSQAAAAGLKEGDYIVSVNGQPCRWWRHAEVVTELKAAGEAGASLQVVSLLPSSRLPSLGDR

[24] = biological target: T12, GRIP1_5, Q9Y3R0
T12 sequence (Q9Y3R0 568-668, limits assumed, looked up): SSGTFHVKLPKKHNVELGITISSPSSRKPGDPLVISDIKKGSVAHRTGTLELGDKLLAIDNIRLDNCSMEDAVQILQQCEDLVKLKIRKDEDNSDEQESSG

[25] = biological target: IL16_3, Q14005
[26] = biological target: NOS1, P29475
Chain of NOS1, P29475 (P29475 9-101): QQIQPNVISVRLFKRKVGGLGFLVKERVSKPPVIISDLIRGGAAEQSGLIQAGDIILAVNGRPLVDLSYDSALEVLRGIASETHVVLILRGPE

Chain of DLG4_1, P78352 (P78352 62-152): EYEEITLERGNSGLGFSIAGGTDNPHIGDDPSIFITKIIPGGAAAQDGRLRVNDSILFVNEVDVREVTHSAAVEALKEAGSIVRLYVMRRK
Chain of MAGI1_1, Q96QZ7 (Q96QZ7 1-106): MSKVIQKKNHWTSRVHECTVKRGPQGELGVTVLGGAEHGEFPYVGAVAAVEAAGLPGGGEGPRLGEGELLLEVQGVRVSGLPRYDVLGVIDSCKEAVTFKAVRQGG
Chain of PDLIM1, O00151 (O00151 1-87): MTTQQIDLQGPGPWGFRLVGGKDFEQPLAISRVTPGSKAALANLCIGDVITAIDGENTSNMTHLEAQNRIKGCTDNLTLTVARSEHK
Chain of GRID2IP_2, A4D2P6 (A4D2P6 272-370): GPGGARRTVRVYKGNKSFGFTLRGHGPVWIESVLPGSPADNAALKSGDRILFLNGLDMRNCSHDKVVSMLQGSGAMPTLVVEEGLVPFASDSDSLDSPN
Chain of IL16_3, Q14005 (Q14005 1107-1207): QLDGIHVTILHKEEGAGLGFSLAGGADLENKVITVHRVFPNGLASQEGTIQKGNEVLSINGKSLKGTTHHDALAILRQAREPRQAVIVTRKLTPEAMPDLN
Chain of PICK1, Q9NRD5 (Q9NRD5 17-115): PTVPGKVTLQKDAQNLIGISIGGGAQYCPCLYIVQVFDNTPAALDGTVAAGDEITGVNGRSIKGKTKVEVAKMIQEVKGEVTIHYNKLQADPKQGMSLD
Chain of HTRA1, Q92743 (Q92743 360-477): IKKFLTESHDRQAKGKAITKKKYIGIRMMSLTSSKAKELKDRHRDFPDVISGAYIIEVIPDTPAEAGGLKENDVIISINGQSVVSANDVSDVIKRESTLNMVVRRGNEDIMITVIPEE
Chain of GRIP2_5, Q9C0E4 (Q9C0E4 544-642): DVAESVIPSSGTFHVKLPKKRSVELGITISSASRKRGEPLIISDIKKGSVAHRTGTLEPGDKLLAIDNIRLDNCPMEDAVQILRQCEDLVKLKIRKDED
Chain of FRMPD3, Q5JV73 (Q5JV73 12-100): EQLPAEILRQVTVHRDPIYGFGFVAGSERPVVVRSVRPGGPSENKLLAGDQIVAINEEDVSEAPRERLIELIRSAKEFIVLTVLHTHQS
Chain of Inadl_8, Q8NI35 (Q8NI35 1425-1530): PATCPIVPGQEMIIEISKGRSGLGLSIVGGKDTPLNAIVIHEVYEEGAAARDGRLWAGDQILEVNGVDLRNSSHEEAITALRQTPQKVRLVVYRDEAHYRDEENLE
Chain of GRIP2_4, Q9C0E4 (Q9C0E4 446-548): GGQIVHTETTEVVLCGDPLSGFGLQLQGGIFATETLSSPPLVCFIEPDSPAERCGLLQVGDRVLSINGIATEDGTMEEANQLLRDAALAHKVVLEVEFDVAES
Chain of DLG4_2, P78352 (P78352 155-259): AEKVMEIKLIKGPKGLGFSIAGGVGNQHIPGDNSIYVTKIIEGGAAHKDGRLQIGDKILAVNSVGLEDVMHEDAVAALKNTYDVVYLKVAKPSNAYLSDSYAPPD

Binder | pKd [1] | pKd [2] | pKd [3] | pKd [4] | pKd [5] | pKd [6] | pKd [7] | pKd [8] | pKd [9] | pKd [10] | pKd [11] | pKd [12] | pKd [13] | pKd [14] | pKd [15] | pKd [16] | pKd [17] | pKd [18] | pKd [19] | pKd [20] | also measured
AKADAQESRL [PLCB2, Q00722] | below the threshold | below the threshold | below the threshold | below the threshold | below the threshold | below the threshold | 3.97 | below the threshold | below the threshold | below the threshold | below the threshold | below the threshold | below the threshold | 5.58 | below the threshold | 3.86 | below the threshold | below the threshold | below the threshold | below the threshold | pKd [21]: below the threshold; pKd [22]: 3.85; pKd [23]: 4.53; pKd [24]: below the threshold; pKd [25]: below the threshold; pKd [26]: below the threshold
IQISELETNV [SLC1A7, O00341] | 4.44 | 4.02 | below the threshold | below the threshold | below the threshold | 4.18 | 4.56 | 3.76 | below the threshold | below the threshold | 4.67 | below the threshold | below the threshold | 3.82 | below the threshold | 3.49 | 3.83 | below the threshold | below the threshold | below the threshold | pKd [21]: 4.66; pKd [22]: below the threshold; pKd [23]: 4.88; pKd [24]: below the threshold; pKd [25]: below the threshold; pKd [26]: below the threshold
TNSKQGETTV [FZD1, Q9UP38] | 4.7 | 4.71 | below the threshold | 3.77 | below the threshold | 4.2 | 4.7 | 4.34 | below the threshold | below the threshold | 4.94 | below the threshold | below the threshold | below the threshold | below the threshold | 3.79 | 3.74 | below the threshold | below the threshold | below the threshold | pKd [21]: 4.64; pKd [22]: below the threshold; pKd [23]: 4.14; pKd [24]: below the threshold; pKd [25]: below the threshold; pKd [26]: 3.53
TFSRRPKTRV [CD226, Q15762] | 3.62 | below the threshold | below the threshold | 3.88 | below the threshold | below the threshold | below the threshold | below the threshold | below the threshold | 3.62 | 3.56 | 3.54 | below the threshold | below the threshold | 3.55 | 4.16 | 3.48 | below the threshold | below the threshold | 4.6 | pKd [21]: below the threshold; pKd [22]: 3.63; pKd [23]: below the threshold; pKd [24]: below the threshold; pKd [25]: below the threshold; pKd [26]: 4.17
